Where no end group is shown, it is not given here.

In assay [1] the target is antibody against β1-adrenoceptor in DCM patient serum A (human). In words: batch adsorption: 50 uL adsorbent with 300 uL DCM patient serum A, 37 C, 2 h; antibody left in supernatant read by ELISA on plate-coated β1AR2nd peptide.
In assay [2] the target is antibody against β1-adrenoceptor in DCM patient serum D (human). In words: batch adsorption with DCM patient serum D, 37 C, 2 h; antibody left in supernatant read by ELISA on plate-coated β1AR2nd peptide. On the technique in general: An ELISA detects its analyte on a solid surface through an enzyme-linked reagent.
Assay [3] deals with antibody against β1-adrenoceptor in DCM patient serum B (human). In words: batch adsorption with DCM patient serum B, 37 C, 2 h; antibody left in supernatant read by ELISA on plate-coated β1AR2nd peptide.
The target in assay [4] is antibody against M2 muscarinic receptor in DCM patient serum C (human). In words: batch adsorption with DCM patient serum C, 37 C, 2 h; antibody left in supernatant read by ELISA on plate-coated M2R peptide.

For the molecule RAESDEARRCYNDPKCCDFVTNR [peptide (SEQ ID NO:4) immobilized on epoxy-activated GCL2000m (GCL2000m-SEQ ID NO:4)], in assay [1], the Adsorptive capacity stood at 35%.

B1: peptides (SEQ ID NOS:11,12) co-immobilized on epoxy-activated Kac (Kac-SEQ ID NOS:11,12) (protein)
peptide 1: HWWRAESDEARRCYNDPKCCDFVTNRAC
peptide 2: VRTVEDGECYIQFFSNAAVTFGTAIC
modifications: cysteine pairing not given here; also: two separate peptides co-immobilized on epoxy-activated Kac
B1 registered an Adsorptive capacity in assay [2] of 80%.

B2: peptide (SEQ ID NO:9) immobilized on epoxy-activated Kac (Kac-SEQ ID NO:9) (peptide)
peptide: HWWRAESDEARRCYNDPKCCDFVTNRGAC
modifications: cysteine pairing not given here; also: immobilized on epoxy-activated cellulose gel Kac
For the molecule B2, in assay [3], the Adsorptive capacity was found to be 70%. In assay [4], VRTVEDGECYIQFFSNAAVTFGTAIPAKK (also: immobilized on Eupergit C 250 L) [peptide (SEQ ID NO:10) immobilized on Eupergit C 250 L (Eu-SEQ ID NO:10)] displayed an Adsorptive capacity of 60%.

B3: second loop of β1-adrenoceptor peptide (β1AR2nd) immobilized on CNBr-activated Sepharose 4B (Sepharose 4B-β1AR2nd) (peptide)
peptide: HWWRAESDEARRCYNDPKCCDFVTNR
modifications: cysteine pairing not given here; also: immobilized on CNBr-activated Sepharose 4B
For the molecule B3, in assay [1], the Adsorptive capacity stood at 15%.

The record behind these values is US20040120946A1.
